The record followed here is paper PMC8064889 (2021).

The test deals with SARS-CoV-2 RBD, His6-tagged, for biolayer interferometry (SARS-CoV-2, UniProt P0DTC2 319-541). In words: BLI. On the technique in general: BLI is a label-free optical method that tracks binding on a fibre tip over time.

B1: 47D1 Fab (Fab, V domains shown)
VH: QVQLVQSGAEVKKPGSSVRVSCKASGGTFSTYPISWVRQAPGQGLEWMGGIIPIFGTAKSAQKFQGRVTITADEFTSTAYMEMSSLRSEDTAMYYCAREGRRYGSGWYISTGYFDYWGQGTLVTVSS
VL: QLVLTQPASVSGSPGQSIIVSCTGTSSDVGGYKFVSWYQQHPGKAPRVMIYDVSNRPSGVSNRFSGSKSGNTASLTISGLQADDEADYYCSSYTNSSTVVFGGGTKVTVL
As a reminder, the Kd is the constant that tells how readily two partners part at equilibrium. Read a high Kd as a looser complex. The molecule B1 registered a dissociation constant (Kd) of 2 nM.
